Reference: paper PMC4505066 (2015)

B1: wild type GSI motif peptide (CPRPLKEGSITQGTPLKYDTG), SMRT amino acids 1450-1469 with an amino-terminal cysteine [modified: BODIPY-TMR coupled to the N-terminal cysteine; BODIPY-TMR coupled to the N-terminal cysteine] [not stated] / HDAC4 … (parent complex)
chain 1: CPRPLKEGSITQGTPLKYDTG
chain 2: TKPRFTTGLVYDTLMLKHQCTCGSSSSHPEHAGRIQSIWSRLQETGLRGKCECIRGRKATLEELQTVHSEAHTLLYGTNPLNRQKLDSKKLLGSLASVFVRLPCGGVGVDSDTIWNEVHSAGAARLAVGCVVELVFKVATGELKNGFAVVRPPGHHAEESTPMGFCYFNSVAVAAKLLQQRLSVSKILIVDWDVHHGNGTQQAFYSDPSVLYMSLHRYDDGNFFPGSGAPDEVGTGPGVGFNVNMAFTGGLDPPMGDAEYLAAFRTVVMPIASEFAPDVVLVSSGFDAVEGHPTPLGGYNLSARCFGYLTKQLMGLAGGRIVLALEGGHDLTAICDASEACVSALLGNELDPLPEKVLQQRPNANAVRSMEKVMEIHSKYWRCLQRTTSTAGRSLIEAQTCENEEAETVT

Variants of: B1
Assay: fluorescence anisotropy

| Variant | Kd [µM] |
| --- | --- |
| chain 1 Q12E | 17.7 |
| chain 1 Q12A | 5.47 |
| chain 1 T11V | 16.9 |
| chain 1 T11A | 14.4 |
| chain 1 P15A | 47 |
